The results in this text go back to patent US20140087995A1 (published 2014).

Experiment [1] addresses T1, rat calcitonin receptor (rat, UniProt P32214 25-516).
T1 construct: whole, on cells; Membranes of transiently transfected BHK tk'ts 13 cells (Assay VIII); also called rCTR
T1 sequence (looked up): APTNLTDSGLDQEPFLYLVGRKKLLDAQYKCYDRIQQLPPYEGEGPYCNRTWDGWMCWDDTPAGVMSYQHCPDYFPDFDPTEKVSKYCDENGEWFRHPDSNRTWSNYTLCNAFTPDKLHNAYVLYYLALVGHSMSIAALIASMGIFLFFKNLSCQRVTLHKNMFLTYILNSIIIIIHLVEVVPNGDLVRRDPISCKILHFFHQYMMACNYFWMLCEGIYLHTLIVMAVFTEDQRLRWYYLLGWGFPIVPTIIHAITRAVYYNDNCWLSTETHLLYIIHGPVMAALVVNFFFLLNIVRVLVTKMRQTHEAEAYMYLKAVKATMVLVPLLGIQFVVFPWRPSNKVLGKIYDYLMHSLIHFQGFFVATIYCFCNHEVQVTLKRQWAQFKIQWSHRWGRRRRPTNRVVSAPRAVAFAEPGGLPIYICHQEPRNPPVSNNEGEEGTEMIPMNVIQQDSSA
Description: SPA competition with 125I-calcitonin, membranes of BHK cells with rat calcitonin receptor (Assay VIII).

For experiment [2], the target named is T1, rat calcitonin receptor. Description: ratio IC50 rat calcitonin receptor / IC50 rat amylin receptor (reference).
For experiment [3], the target named is T2, human calcitonin receptor (human, UniProt P30988 25-474).
T2 construct: whole, on cells; Membranes of a stably transfected BHK cell line (Assay VII); also called hCTR; hCT
T2 sequence (looked up): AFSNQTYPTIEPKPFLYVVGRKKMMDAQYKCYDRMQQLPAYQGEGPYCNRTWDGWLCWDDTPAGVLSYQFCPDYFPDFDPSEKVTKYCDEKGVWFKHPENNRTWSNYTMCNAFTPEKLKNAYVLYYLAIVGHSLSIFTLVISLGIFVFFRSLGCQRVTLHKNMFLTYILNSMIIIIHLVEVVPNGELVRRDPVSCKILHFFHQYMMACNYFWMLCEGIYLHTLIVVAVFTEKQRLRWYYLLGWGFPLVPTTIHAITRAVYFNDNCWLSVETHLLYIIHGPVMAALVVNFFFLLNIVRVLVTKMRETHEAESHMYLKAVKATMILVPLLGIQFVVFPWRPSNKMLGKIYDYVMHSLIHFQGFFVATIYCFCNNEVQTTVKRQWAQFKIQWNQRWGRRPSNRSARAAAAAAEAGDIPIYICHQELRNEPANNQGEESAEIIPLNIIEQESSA
The experiment is described as follows: ratio IC50 human calcitonin receptor / IC50 human amylin receptor (reference). The method, boiled down: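 Membranes (35 ng/μL final) + SPA beads, 50 mM Hepes pH 7.4 buffer with 1 mM CaCl2, 5 mM MgCl₂, 0.1% OA, 0.02% Tween20; 120 min, 25° C, shaking; centrifuged, counted; IC₅₀ by one-site binding competition.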

For experiment [4], the target named is T3, rat amylin receptor (rat calcitonin receptor + rat RAMP 3) (rat, UniProt P32214 25-516; Q9JJ73 23-147).
T3 construct: whole, on cells; Membranes of transiently transfected BHK tk'ts 13 cells (Assay VI); also called rAmylin-R; rat amylin 3(a) receptor
T3 sequence (looked up) 1: T1 sequence (looked up)
T3 sequence (looked up) 2: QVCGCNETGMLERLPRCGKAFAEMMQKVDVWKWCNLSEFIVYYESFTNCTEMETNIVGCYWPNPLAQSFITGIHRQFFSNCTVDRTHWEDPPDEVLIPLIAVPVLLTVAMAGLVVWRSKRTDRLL
The experiment is described as follows: SPA competition with 125I-rat amylin, membranes of BHK cells with rat calcitonin receptor + rat RAMP3 (Assay VI).

Numbered stars: 1 amine (or outer) side, 2 acyl side, 3 side chain; on linkers, the order of the positions; unused ones are H or OH. Bridge positions count the residues as written; N and C are the ends. Side chains are listed from the residue outwards. Ends that are not written are not given here. * marks the point of attachment. C20 diacid = O=C(O)CCCCCCCCCCCCCCCCCCC(=O)*; γGlu = O=C(O)[C@H](CCC(=O)[*:2])N[*:1]

B1: N^ε1-[(4S)-4-carboxy-4-[[(4S)-4-carboxy-4-(19-carboxynonadecanoylamino)butanoyl]amino]butanoyl]-[Arg17,Pro21,Pro27,Pro31,Pro34,Arg35]-h-amylin (peptide)
peptide: K([γGlu-γGlu-C20 diacid])CNTATCATQRLANFLRHSSPNFGAIPSSTPVGPRTY-NH2
modifications: disulfide 2-7; N-terminus assumed
SMILES: CC[C@H](C)[C@H](NC(=O)[C@H](C)NC(=O)CNC(=O)[C@H](Cc1ccccc1)NC(=O)[C@H](CC(N)=O)NC(=O)[C@@H]1CCCN1C(=O)[C@H](CO)NC(=O)[C@H](CO)NC(=O)[C@H](Cc1c[nH]cn1)NC(=O)[C@H](CCCNC(=N)N)NC(=O)[C@H](CC(C)C)NC(=O)[C@H](Cc1ccccc1)NC(=O)[C@H](CC(N)=O)NC(=O)[C@H](C)NC(=O)[C@H](CC(C)C)NC(=O)[C@H](CCCNC(=N)N)NC(=O)[C@H](CCC(N)=O)NC(=O)[C@@H](NC(=O)[C@H](C)NC(=O)[C@@H]1CSSC[C@H](NC(=O)[C@@H](N)CCCCNC(=O)CC[C@H](NC(=O)CC[C@H](NC(=O)CCCCCCCCCCCCCCCCCCC(=O)O)C(=O)O)C(=O)O)C(=O)N[C@@H](CC(N)=O)C(=O)N[C@@H]([C@@H](C)O)C(=O)N[C@@H](C)C(=O)N[C@@H]([C@@H](C)O)C(=O)N1)[C@@H](C)O)C(=O)N1CCC[C@H]1C(=O)N[C@@H](CO)C(=O)N[C@@H](CO)C(=O)N[C@H](C(=O)N1CCC[C@H]1C(=O)N[C@H](C(=O)NCC(=O)N1CCC[C@H]1C(=O)N[C@@H](CCCNC(=N)N)C(=O)N[C@H](C(=O)N[C@@H](Cc1ccc(O)cc1)C(N)=O)[C@@H](C)O)C(C)C)[C@@H](C)O
Turning to B1, the values for the IC50 (with rat calcitonin receptor [1]; in experiment [4]) were 52.4 nM and 0.381 nM, respectively. In the experiment with rat calcitonin receptor [2], the “Ratio rCT/rAmylin binding” value was found to be 137. The “Ratio hCT/hAmylin binding” value in experiment [3] amounted to 48.6.

B2: N^ε1-[(4S)-4-carboxy-4-[[(4S)-4-carboxy-4-(19-carboxynonadecanoylamino)butanoyl]amino]butanoyl]-[Glu14,Arg17,Pro21,Pro27,Arg34]-h-amylin (peptide)
peptide: K([γGlu-γGlu-C20 diacid])CNTATCATQRLAEFLRHSSPNFGAIPSSTNVGRNTY-NH2
modifications: disulfide 2-7; N-terminus assumed
SMILES: CC[C@H](C)[C@H](NC(=O)[C@H](C)NC(=O)CNC(=O)[C@H](Cc1ccccc1)NC(=O)[C@H](CC(N)=O)NC(=O)[C@@H]1CCCN1C(=O)[C@H](CO)NC(=O)[C@H](CO)NC(=O)[C@H](Cc1c[nH]cn1)NC(=O)[C@H](CCCNC(=N)N)NC(=O)[C@H](CC(C)C)NC(=O)[C@H](Cc1ccccc1)NC(=O)[C@H](CCC(=O)O)NC(=O)[C@H](C)NC(=O)[C@H](CC(C)C)NC(=O)[C@H](CCCNC(=N)N)NC(=O)[C@H](CCC(N)=O)NC(=O)[C@@H](NC(=O)[C@H](C)NC(=O)[C@@H]1CSSC[C@H](NC(=O)[C@@H](N)CCCCNC(=O)CC[C@H](NC(=O)CC[C@H](NC(=O)CCCCCCCCCCCCCCCCCCC(=O)O)C(=O)O)C(=O)O)C(=O)N[C@@H](CC(N)=O)C(=O)N[C@@H]([C@@H](C)O)C(=O)N[C@@H](C)C(=O)N[C@@H]([C@@H](C)O)C(=O)N1)[C@@H](C)O)C(=O)N1CCC[C@H]1C(=O)N[C@@H](CO)C(=O)N[C@@H](CO)C(=O)N[C@H](C(=O)N[C@@H](CC(N)=O)C(=O)N[C@H](C(=O)NCC(=O)N[C@@H](CCCNC(=N)N)C(=O)N[C@@H](CC(N)=O)C(=O)N[C@H](C(=O)N[C@@H](Cc1ccc(O)cc1)C(N)=O)[C@@H](C)O)C(C)C)[C@@H](C)O
notes: also called compound 88
For the molecule B2, the 50% inhibitory concentration (IC50) (usually the concentration that inhibits the measured activity by half) was determined as 196 nM in the experiment with rat calcitonin receptor [1] and 2.31 nM in experiment [4]. In addition, the “Ratio rCT/rAmylin binding” value with rat calcitonin receptor [2] is 84.9. Further, the “Ratio hCT/hAmylin binding” value in experiment [3] was 46.5.

B3: N^ε1-[(4S)-4-carboxy-4-[[(4S)-4-carboxy-4-(19-carboxynonadecanoylamino)butanoyl]amino]butanoyl]-[Glu14,Arg17,Pro21,Pro27,Arg35]-h-amylin (peptide)
peptide: K([γGlu-γGlu-C20 diacid])CNTATCATQRLAEFLRHSSPNFGAIPSSTNVGSRTY-NH2
modifications: disulfide 2-7; N-terminus assumed
SMILES: CC[C@H](C)[C@H](NC(=O)[C@H](C)NC(=O)CNC(=O)[C@H](Cc1ccccc1)NC(=O)[C@H](CC(N)=O)NC(=O)[C@@H]1CCCN1C(=O)[C@H](CO)NC(=O)[C@H](CO)NC(=O)[C@H](Cc1c[nH]cn1)NC(=O)[C@H](CCCNC(=N)N)NC(=O)[C@H](CC(C)C)NC(=O)[C@H](Cc1ccccc1)NC(=O)[C@H](CCC(=O)O)NC(=O)[C@H](C)NC(=O)[C@H](CC(C)C)NC(=O)[C@H](CCCNC(=N)N)NC(=O)[C@H](CCC(N)=O)NC(=O)[C@@H](NC(=O)[C@H](C)NC(=O)[C@@H]1CSSC[C@H](NC(=O)[C@@H](N)CCCCNC(=O)CC[C@H](NC(=O)CC[C@H](NC(=O)CCCCCCCCCCCCCCCCCCC(=O)O)C(=O)O)C(=O)O)C(=O)N[C@@H](CC(N)=O)C(=O)N[C@@H]([C@@H](C)O)C(=O)N[C@@H](C)C(=O)N[C@@H]([C@@H](C)O)C(=O)N1)[C@@H](C)O)C(=O)N1CCC[C@H]1C(=O)N[C@@H](CO)C(=O)N[C@@H](CO)C(=O)N[C@H](C(=O)N[C@@H](CC(N)=O)C(=O)N[C@H](C(=O)NCC(=O)N[C@@H](CO)C(=O)N[C@@H](CCCNC(=N)N)C(=O)N[C@H](C(=O)N[C@@H](Cc1ccc(O)cc1)C(N)=O)[C@@H](C)O)C(C)C)[C@@H](C)O
notes: also called compound 89
Take B3: the figures for the IC50 (with rat calcitonin receptor [1]; in experiment [4]) were 115 nM and 2.37 nM, respectively. The “Ratio rCT/rAmylin binding” value with rat calcitonin receptor [2] was 48.8. Besides, the “Ratio hCT/hAmylin binding” value in experiment [3] is 28.

B4: N^ε1-[(4S)-4-carboxy-4-[[(4S)-4-carboxy-4-(19-carboxynonadecanoylamino)butanoyl]amino]butanoyl]-[Glu14,Arg17,Pro21,Pro27,Arg34,Glu35]-h-amylin (peptide)
peptide: K([γGlu-γGlu-C20 diacid])CNTATCATQRLAEFLRHSSPNFGAIPSSTNVGRETY-NH2
modifications: disulfide 2-7; N-terminus assumed
SMILES: CC[C@H](C)[C@H](NC(=O)[C@H](C)NC(=O)CNC(=O)[C@H](Cc1ccccc1)NC(=O)[C@H](CC(N)=O)NC(=O)[C@@H]1CCCN1C(=O)[C@H](CO)NC(=O)[C@H](CO)NC(=O)[C@H](Cc1c[nH]cn1)NC(=O)[C@H](CCCNC(=N)N)NC(=O)[C@H](CC(C)C)NC(=O)[C@H](Cc1ccccc1)NC(=O)[C@H](CCC(=O)O)NC(=O)[C@H](C)NC(=O)[C@H](CC(C)C)NC(=O)[C@H](CCCNC(=N)N)NC(=O)[C@H](CCC(N)=O)NC(=O)[C@@H](NC(=O)[C@H](C)NC(=O)[C@@H]1CSSC[C@H](NC(=O)[C@@H](N)CCCCNC(=O)CC[C@H](NC(=O)CC[C@H](NC(=O)CCCCCCCCCCCCCCCCCCC(=O)O)C(=O)O)C(=O)O)C(=O)N[C@@H](CC(N)=O)C(=O)N[C@@H]([C@@H](C)O)C(=O)N[C@@H](C)C(=O)N[C@@H]([C@@H](C)O)C(=O)N1)[C@@H](C)O)C(=O)N1CCC[C@H]1C(=O)N[C@@H](CO)C(=O)N[C@@H](CO)C(=O)N[C@H](C(=O)N[C@@H](CC(N)=O)C(=O)N[C@H](C(=O)NCC(=O)N[C@@H](CCCNC(=N)N)C(=O)N[C@@H](CCC(=O)O)C(=O)N[C@H](C(=O)N[C@@H](Cc1ccc(O)cc1)C(N)=O)[C@@H](C)O)C(C)C)[C@@H](C)O
Take B4: the IC50 in the experiment with rat calcitonin receptor [1] was found to be 452 nM; in experiment [4] it was 2.86 nM. The “Ratio rCT/rAmylin binding” value with rat calcitonin receptor [2] is 158. Also, the “Ratio hCT/hAmylin binding” value in experiment [3] is 14.7.
